The target in test [1] is T1, P17-His protein (human CD40 antigen) (human, UniProt P25942 21-193, limits assumed).
T1 construct: also called human CD40 antigen (P17-His)
The experiment in a line: BLI (Fortebio Octet RED96), antibody on Protein A sensor, P17-His 5-40 nM. As to the method: In this example, the affinity of C8 parent antibody (C8-WT) and affinity variant antibody for human CD40 antigen (P17-His) was detected using an Fortebio Octet RED96 instrument.
Material preparation: 1 g of BSA and 500 μL of Tween 20 were added to 1000 mL of 1×PBS and mixed uniformly. The mixture was filtered, and then subpackaged and stored. 0.1 mL of glycine solution (0.1 M, pH 2.0) was pipetted, 0.9 mL of ultrapure water was added, and the mixture was mixed uniformly. The antibodies were diluted to 10 μg/mL with a KB buffer, and the antigens were diluted with a KB buffer to serial concentration gradients, i.e., 40 nM, 20 nM, 10 nM, 5 nM and 0 nM.
Experiment procedure: The sample plate (GreinierBio, PN655209) was tested after a sensor (Protein A sensor) was pre-wetted in the dark for at least 10 min, and after confirming the accuracy, the test was performed according to the preset programs. KB buffer was added at 200 μL/well to the wells of columns 1, 10 and 12 of sample plate 1; the glycine solution (0.01 M, pH 2.0) was added to the wells of column 11; the prepared sample solution was added to the wells of columns 2-8 (5 replicate wells for one sample); and P17-His was sequentially added to the wells of column 9 in a descending order of the concentration.
A general note: In BLI a coated tip is dipped into the sample, and binding shifts an interference pattern.

Test [2] deals with T2, human CD40 expressed on the cell surface (human, UniProt P25942 21-277).
T2 construct: whole, on cells; Used for transfected CHO-K cells, for transfected Jurkat reporter cells (Met1-Gln277) and for the natural CD40 on Ramos cells and iDC; also called CHO-K-huCD40 cells; CHO cells expressing CD40
Kind of test: flow cytometry on CHO-K-huCD40 cells, APC anti-human IgG secondary antibody. As for the experimental part: (§1) 100 μL of diluted anti-CD40 candidate antibody prepared in example 4.3 was added to the 96-well plate. After incubation at 4° C. for 30 min, the cells were washed 5 times with a FACS buffer (PBS+5% FBS+2% BSA), added with 100 μL of APC-labeled anti-human IgG secondary antibody, and then incubated at 4° C. for 30 min. The cells were then washed and tested by flow cytometry.

Test [3] concerns the target T2, human CD40 expressed on the cell surface. The description is as above. As for the experimental part: as §1
This is another data set of the same source.

The target of test [4] is T3, full-length mouse CD40 expressed on CHO-K cells (mouse, UniProt P27512 20-289).
T3 construct: whole, on cells; also called CHO-K-mouseCD40 cells; mouse CD40 antigen
The experiment in a line: flow cytometry on CHO-K-mouseCD40 cells, FITC anti-human IgG Fc secondary antibody. As for the experimental part: The cross-reactivity of the affinity variant candidate antibody prepared in example 4.3 to mouse CD40 was tested using artificially constructed CHO-K cells expressing full-length mouse CD40 (Uniprot #P27512) (CHO-K-mouseCD40 cells). The CHO-K cells expressing mouse CD40 were seeded into a 96-well plate at 1.0×10⁵ cells/well. 100 μL of diluted affinity variant candidate antibody and the control antibody (APX005) were added to the 96-well plate, respectively. […] The cells were then washed and tested by flow cytometry.

Test [5] deals with T2, human CD40 expressed on the cell surface. The experiment in a line: cell-based or functional assay.

Read-outs that look alike come from different tables or passages of the source.

T3 sequence (P27512 20-289): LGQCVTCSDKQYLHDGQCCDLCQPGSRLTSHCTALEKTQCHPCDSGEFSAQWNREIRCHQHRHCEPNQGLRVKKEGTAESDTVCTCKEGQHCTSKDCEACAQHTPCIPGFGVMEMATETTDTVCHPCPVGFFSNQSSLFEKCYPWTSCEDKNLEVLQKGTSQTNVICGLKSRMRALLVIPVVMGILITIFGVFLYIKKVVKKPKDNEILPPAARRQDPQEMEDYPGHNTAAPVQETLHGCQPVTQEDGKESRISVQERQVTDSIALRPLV
T2 sequence (P25942 21-277): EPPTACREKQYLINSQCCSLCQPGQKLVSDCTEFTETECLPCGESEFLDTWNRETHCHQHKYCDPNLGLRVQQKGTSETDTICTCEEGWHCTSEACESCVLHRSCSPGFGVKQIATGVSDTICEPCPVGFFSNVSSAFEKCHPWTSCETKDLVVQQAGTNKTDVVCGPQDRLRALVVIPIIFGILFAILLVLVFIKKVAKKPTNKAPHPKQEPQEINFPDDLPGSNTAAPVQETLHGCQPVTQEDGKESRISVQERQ
T1 sequence (P25942 other isoform, or with tags, fused parts or gaps limits assumed): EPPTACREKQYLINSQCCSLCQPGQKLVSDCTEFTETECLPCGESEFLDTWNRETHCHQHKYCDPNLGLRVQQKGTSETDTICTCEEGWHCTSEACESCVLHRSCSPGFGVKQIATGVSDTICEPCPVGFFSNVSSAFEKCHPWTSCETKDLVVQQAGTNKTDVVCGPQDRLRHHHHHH

B1: APX005M (antibody, V domains shown)
VH: QVQLVESGGGVVQPGRSLRLSCAASGFSFSSTYVCWVRQAPGKGLEWIACIYTGDGTNYSASWAKGRFTISKDSSKNTVYLQMNSLRAEDTAVYFCARPDITYGFAINFWGPGTLVTVSS
VL: DIQMTQSPSSLSASVGDRVTIKCQASQSISSRLAWYQQKPGKPPKLLIYRASTLASGVPSRFSGSGSGTDFTLTISSLQPEDVATYYCQCTGYGISWPIGGGTKVEIK
The Kd is the free concentration of one partner at which half of the binding sites on the other are occupied at equilibrium, for simple one-to-one binding. Higher therefore signals weaker binding. In general, koff refers to the rate constant with which the complex falls apart. The term kon denotes the rate constant with which the complex forms. As usually defined, the EC50 (read off the curve) is the concentration giving half of the maximal effect. Low readings indicate a more potent agent, high ones a less potent agent. As to B1, in test [1], the equilibrium dissociation constant (Kd) stood at 6.3 nM, the koff came out at 0.0124 s⁻¹ and the kon was 1.98e+06 M⁻¹ s⁻¹. Moreover, the “EC50 (read off the curve)” value in test [2] was roughly 0.7 µg/mL. The 50% effective concentration (EC50 (read off the curve)) in test [3] is roughly 0.8 µg/mL.

B2: C8-8 antibody (antibody, V domains shown)
VH: EVQLLESGGGLVRPGGSLRLSCAASGFTFGSYEMNWVRQAPGKGLEWVSYISSSGETTDYADSVKGRFTVSRDNSKNLLYLQMNSLRAEDTAVYYCARDVFFFDSSGPPGAYGMDVWGQGTMVTVSS
VL: DIQLTQSPSSLTASVGDRVTITCRSSQGIRSSLAWYQQKPGKPPKLLIYGASSLEGGVPSRFSGSGSGTDFTLTISSLQPEDFATYYCQQLNSFPSTFGQGTKLEIK
Turning to B2, in test [1], the Kd worked out at 10.3 nM, the koff was 0.011 s⁻¹ and the kon was found to be 1.07e+06 M⁻¹ s⁻¹. Moreover, the “EC50 (read off the curve)” value in test [3] is roughly 0.7 µg/mL. Further, in test [4], the binding result is “binds”.

B3: C8-5 antibody (antibody, V domains shown)
VH: EVQLLESGGGLVRPGGSLRLSCAASGFTFGSYEMDWVRQAPGKGLEWVSYISSSGETTDYADSVKPRFTVSRDNSKNLLYLQMNSLRAEDTAVYYCARDVFFFDSSGDNGAYGMDVWGQGTMVTVSS
VL: DIQLTQSPSSLTASVGDRVTITCRSSQGIRSSLAWYQQKPGKPPKLLIYGGSSLEGGVPSRFSGSGSGTDFTLTISSLQPEDFATYYCQQLNSFPSTFGQGTKLEIK
For B3, in test [1], binding was put at a Kd of 8.23 nM, the koff amounted to 0.00818 s⁻¹ and the kon was 994000 M⁻¹ s⁻¹. Further, the “EC50 (read off the curve)” value in test [2] is roughly 0.8 µg/mL. In test [4], the binding result was “no binding (tested: 20 µg/mL)”.

B4: C8-7 antibody (antibody, V domains shown)
VH: EVQLLESGGGLVRPGGSLRLSCAASGFTFGSYEMNWVRQAPGKGLEWVSYISSSGETTDYADSVKGRFTVSRDNSKNLLYLQMNSLRAEDTAVYYCARDVFFFDSSGDNHAYGMDVWGQGTMVTVSS
VL: DIQLTQSPSSLTASVGDRVTITCRSSQGIRSSLAWYQQKPGKPPKLLIYGASSLEGGVPSRFSGSGSGTDFTLTISSLQPEDFATYYCQQLNSFPSTFGQGTKLEIK
As to B4, in test [1], the Kd is 12.4 nM, the koff worked out at 0.0111 s⁻¹ and the kon was determined as 895000 M⁻¹ s⁻¹. Moreover, in test [3], the “EC50 (read off the curve)” value is roughly 0.9 µg/mL. For the same molecule, the binding result in test [4] was “binds”.

B5: C8-3 antibody (antibody, V domains shown)
VH: EVQLLESGGGLVRPGGSLRLSCAASGFTAGSYEMNWVRQAPGKGLEWVSYISSSGETTDYADSVKGRFTVSRDNSKNLLYLQMNSLRAEDTAVYYCARDVFFFDSSGDNGAYGMDVWGQGTMVTVSS
VL: DIQLTQSPSSLTASVGDRVTITCRSSQGIRSSLAWYQQKPGKPPKLLIYGASSLEVGVPSRFSGSGSGTDFTLTISSLQPEDFATYYCQQLNSFPSTFGQGTKLEIK
Consider B5, for which, in test [1], binding was put at a Kd of 4.51 nM, the koff worked out at 0.0111 s⁻¹ and the kon was 2.46e+06 M⁻¹ s⁻¹. Also, the “EC50 (read off the curve)” value in test [2] is roughly 0.8 µg/mL. Besides, the binding result in test [4] is given as “no binding (tested: 20 µg/mL)”.

B6: C8-4 antibody (antibody, V domains shown)
VH: EVQLLESGGGLVRPGGSLRLSCAASGFTFGSYEMNWVRQAPGKGLEWVSYISSSGETTDYADSVKGRFTVSRDNSKNLLYLQMNSLRAEDTAVYYCARDVFFFDSSGPRGAYGMDVWGQGTMVTVSS
VL: DIQLTQSPSSLTASVGDRVTITCRSSQGIRSSLAWYQQKPGKPPKLLIYGASSLEGGVPSRFSGSGSGTDFTLTISSLQPEDFATYYCQQLNSFPSTFGQGTKLEIK
In test [1], B6 yielded a Kd of 5.34 nM, a koff of 0.00725 s⁻¹ and a kon of 1.36e+06 M⁻¹ s⁻¹. The “EC50 (read off the curve)” value in test [2] was roughly 0.8 µg/mL. The binding result in test [4] is listed as “no binding (tested: 20 µg/mL)”.

B7: C8-6 antibody (antibody, V domains shown)
VH: EVQLLESGGGLVRPGGSLRLSCAASGFTFGSYEMNWVRQAPGKGLEWVSYISSSGETTDYADSVKGRFTVSRDNSKNLLYLQMNSLRAEDTAVYYCARDVFFFDSSGSPGAYGMDVWGQGTMVTVSS
VL: DIQLTQSPSSLTASVGDRVTITCRSSQGIRSSLAWYQQKPGKPPKLLIYGASSLEGGVPSRFSGSGSGTDFTLTISSLQPEDFATYYCQQLNSFPSTFGQGTKLEIK
B7: the “CD95 expression on Ramos cells without crosslinking agent (FACS)” value in test [5] was roughly 10 times weaker than APX005. In test [1], the affinity, expressed as Kd, was 9.04 nM; the koff was found to be 0.00984 s⁻¹; the kon amounted to 1.09e+06 M⁻¹ s⁻¹. Also, the “EC50 (read off the curve)” value in test [2] is roughly 0.8 µg/mL. Moreover, the binding result in test [4] is reported as “binds”.

B8: C8-1 antibody (antibody, V domains shown)
VH: EVQLLESGGGLVRPGGSLRLSCAASGFTFGSYEMNWVRQAPGKGLEWVSYISSSGETTDYADSVKGRFTVSRDNSKNLLYLQMNSLRAEDTAVYYCARDVFFFDSSGDNGAYGMDVWGQGTMVTVSS
VL: DIQLTQSPSSLTASVGDRVTITCRSSQGIRSSLAWYQQKPGKPPKLLIYGASSLEGGVPSRFSGSGSGTDFTLTISSLQPEDFATYYCQQLASFPSTFGQGTKLEIK
In test [1], B8 displayed a dissociation constant (Kd) of 12.7 nM, a koff of 0.0148 s⁻¹ and a kon of 1.16e+06 M⁻¹ s⁻¹. Also, the “EC50 (read off the curve)” value in test [2] is roughly 0.8 µg/mL. For the same molecule, the binding result in test [4] was “binds”.

B9: C8-2 antibody (antibody, V domains shown)
VH: EVQLLESGGGLVRPGGSLRLSCAASGFTFGSYEMNWVRQAPGKGLEWVSYISSSGETTDYADSVKGRFTVSRDNSKNLLYLQMNSLRAEDTAVYYCARDVFFFSPSGDNGAYGMDVWGQGTMVTVSS
VL: DIQLTQSPSSLTASVGDRVTITCRSSQGIRSSLAWYQQKPGKPPKLLIYGASSLEGGVPSRFSGSGSGTDFTLTISSLQPEDFATYYCQQLNSFPSTFGQGTKLEIK
On to B9, for which, in test [5], the “CD95 expression on Ramos cells without crosslinking agent (FACS)” value is roughly 10 times weaker than APX005. Further, in test [1], the Kd is 11.9 nM, the dissociation rate constant (koff) was 0.0111 s⁻¹ and the kon worked out at 932000 M⁻¹ s⁻¹. For the same molecule, in test [2], the “EC50 (read off the curve)” value was roughly 0.8 µg/mL. Moreover, in test [4], the binding result was “binds”.

B10: C8-10 antibody (antibody, V domains shown)
VH: EVQLLESGGGLVRPGGSLRLSCAASGFTFGSYEMNWVRQAPGKGLEWVSYISSSGETTDYADSVKGRFTVSRDNSKNLLYLQMNSLRAEDTAVYYCARDVFFFDSSGFPGAYGMDVWGQGTMVTVSS
VL: DIQLTQSPSSLTASVGDRVTITCRSSQGIRSSLAWYQQKPGKPPKLLIYGASSLEGGVPSRFSGSGSGTDFTLTISSLQPEDFATYYCQQLNSFPSTFGQGTKLEIK
Turning to B10, the “CD95 expression on Ramos cells without crosslinking agent (FACS)” value in test [5] is roughly 10 times weaker than APX005. In addition, in test [1], binding was put at a Kd of 6.82 nM, the koff stood at 0.00847 s⁻¹ and the kon came out at 1.24e+06 M⁻¹ s⁻¹. Further, the “EC50 (read off the curve)” value in test [3] was roughly 0.9 µg/mL. For the same molecule, in test [4], the binding result was “binds”.

B11: C8-9 antibody (antibody, V domains shown)
VH: EVQLLESGGGLVRPGGSLRLSCAASGFTFGSYEMNWVRQAPGKGLEWVSYISSSGETTDYADSVKGRFTVSRDNSKNLLYLQMNSLRAEDTAVYYCARDVFFFDSSRPNGAYGMDVWGQGTMVTVSS
VL: DIQLTQSPSSLTASVGDRVTITCRSSQGIRSSLAWYQQKPGKPPKLLIYGASSLEGGVPSRFSGSGSGTDFTLTISSLQPEDFATYYCQQLNSFPSTFGQGTKLEIK
In the case of B11, in test [5], the “CD95 expression on Ramos cells without crosslinking agent (FACS)” value was roughly 10 times weaker than APX005. In test [1], this molecule gave a Kd of 9.27 nM, a koff of 0.0112 s⁻¹ and a kon of 1.21e+06 M⁻¹ s⁻¹. The “EC50 (read off the curve)” value in test [3] was roughly 0.9 µg/mL. For the same molecule, in test [4], the binding result is on record as “binds”.

For the origin of these results see patent publication US20240218071A1 (ANHUI BIOX VISION BIOLOGICAL TECHNOLOGY, published 2024).
